Test results taken from US20190367619A1 (ARGENX, published 2019).

T1: human galectin-10-His (recombinant human galectin-10 with TEV-cleavable N-terminal His-tag) (human)
T1 construct: SEC-MALLS: dimer in solution; also called Gal10-His; humanGal10-His
T1 chain: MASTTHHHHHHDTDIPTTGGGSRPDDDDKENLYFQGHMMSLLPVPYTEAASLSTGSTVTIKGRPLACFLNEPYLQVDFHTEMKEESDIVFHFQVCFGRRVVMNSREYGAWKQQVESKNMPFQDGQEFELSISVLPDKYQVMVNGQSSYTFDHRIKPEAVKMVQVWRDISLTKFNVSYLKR

T2: human galectin-10 as coated in ELISA (soluble galectin-10; tag not given) (human, UniProt Q05315 1-142, limits assumed)
T2 construct: also called coated galectin-10; Gal10
T2 sequence: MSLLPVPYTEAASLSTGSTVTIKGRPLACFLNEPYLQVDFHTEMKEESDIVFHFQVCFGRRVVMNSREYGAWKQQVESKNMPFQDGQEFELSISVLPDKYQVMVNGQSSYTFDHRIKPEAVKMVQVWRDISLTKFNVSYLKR

B1: 4E08 Fab (Fab, V domains shown)
VH: QVQRQESGPGLVKPSQTLSLTCTVSGGSITTSYYAWSWIRQPPGKGLEWMGVIASDGSTYYSPSLKSRTSISRDTSKNQFSLQLSSVTPEDTAVYYCALYIRGSSWSGWSAYDYWGQGTQVTVSS
VL: QPVLNQPSAVSVSLGQTARITCQGGNFGYYYGSWYQQKPGQAPVLVIYKDSERPSGIPERFSGSSSGGTATLTISRAQAEDEADYYCQSADSSDNPVFGGGTHLTVL
notes: VH on human CH1 constant domain (with part of the hinge region), VL on human lambda constant domain; also called 4E8; Fab 4E8
B2: scFv 6E10 (periplasmic extract, Myc-tagged) (scFv, not shown: small tags and cut ends)
scFv: QLQLVESGGGLVQPGGSLRLSCAASGFTFSSYWMYWVRQAPGKGLEWVSAINTGGGSTYYADSVKGRFTISRDNAKNTLYLQMNSLKPEDTALYYCARAGSGVAGTGYDYWGQGTQVTVSSGGGGSGGGGSGGGGSQPVLNQPSAVSVSLGQTARITCQGGNFGYYYVSWYQQKPGQAPVLVIYRDSGRPSGIPERFSGSSSGDTATLTISGAQAEDEADYYCQSGSSSDNAVFGGGTHLTVL
notes: also called 6E010
B3: scFv 2F09 (periplasmic extract, Myc-tagged) (scFv, not shown: small tags and cut ends)
scFv: QVQVQESGPGLVKPSQTLSLTCTVSGGSITTNYFYWSWIRQSPGKGLEWIGAIAYSGRTYYSPSLKSRTSISRDTSNNQFTLQLSSVTPEDTAVYYCARGPKGLASYYDYWGQGTQVTVSSGGGGSGGGGSGGGGSSSALTQPSAVSVSLGQTARITCQGGNFGYYYVSWYQQKPGQAPVLVIYRDSGRPSGIPERFSGSSSGDTATLTISGAQAEDEADYYCQSGSSSDNTVFGGGTHLTVL
B4: 1C09 Fab (Fab, V domains shown)
VH: QVQLVESGPGLVKPSQTLSLTCTVSGGSITTNSYYWSWIRQPPGKGLEWMGAIAYSGSTYYSPSLKSRTSISRDTSKNQFTLHLSSVTPEDTAVYYCARRPNWYRALDAWGQGTLVTVSS
VL: NFMLTQPSAVSVSLGQTARITCQGANLGRYYGIWYQQKPGQAPVQVIYGDSNRPSGIPERFSGSSSGGTATLTISGAQAEDEADYYCQSYESSTSPVFGGGTHLTVL
notes: VH on human CH1 constant domain (with part of the hinge region), VL on human lambda constant domain; also called 1C9; Fab 1C09
B5: scFv 6B06 (periplasmic extract, Myc-tagged) (scFv, not shown: small tags and cut ends)
scFv: QVQRQESGPGLVKPSQTLSLTCTVSGGSITTNYYSWSWIRQPPGKGLEWIGYIAYSGSTSYSPSLKSRTSISRDTSNNQFSLQLSSVTPEDTAVYYCARSRSSPTTFGMDYWGKGTLVTVSSGGGGSGGGGSGGGGSSSALTQPSAVSVSLGQTARITCQGGNFGRYYVSWYTQKPGQAPVLVIYQDSERPTGIPERFSGSSSGDTATLTISGAQAEDEADYYCQSGTSSDNIVFGGGTHLTVL
B6: scFv 1C09 (periplasmic extract, Myc-tagged) (scFv, not shown: small tags and cut ends)
scFv: QVQLVESGPGLVKPSQTLSLTCTVSGGSITTNSYYWSWIRQPPGKGLEWMGAIAYSGSTYYSPSLKSRTSISRDTSKNQFTLHLSSVTPEDTAVYYCARRPNWYRALDAWGQGTLVTVSSGGGGSGGGGSGGGGSNFMLTQPSAVSVSLGQTARITCQGANLGRYYGIWYQQKPGQAPVQVIYGDSNRPSGIPERFSGSSSGGTATLTISGAQAEDEADYYCQSYESSTSPVFGGGTHLTVL
notes: also called 1C9
B7: scFv 2C07 (periplasmic extract, Myc-tagged) (scFv, not shown: small tags and cut ends)
scFv: ELQLVESGGGLVQPGGSLRLSCAASGFTFSSYAMSWVRQAPGKGLEWVSNINSGGGSTGYADSVKGRFTISRDNAKNTLYLQMNSLKPEDMAVYYCAKYLRTYYPNAAFGMDYWGKGTLVTVSSGGGGSGGGGSGGGGSQAVLTQPSAVSVSLGQTARITCQGGNFGRYYASWYQQKPGQAPVLVIYRDSERPSGIPERFSGSSSGDTATLTISGAQAEDEADYYCQSGRSSDNAVFGGGTHLTGL
B8: 1D11 Fab (Fab, V domains shown)
VH: QVQLVESGGGLVQPGGSLRLSCAASGFTFDDYAMSWVRQAPGKGLEWVSGISWNGGSTYYAESMKGRFTISRDNAKNTLYLQMNSLKSEDTAVYYCAKDRNLGYRLGYPYDYWGQGTQVTVSS
VL: QSVLTQPPSVSGSPGETVTISCAGTSSDVGYGNYVSWYQQLPGMAPRLLIYEVNKRASGITDRFSGSKSGNTASLTISGLQSEDEGDYYCASYRSSNNAVFGGGTHLTVL
notes: VH on human CH1 constant domain (with part of the hinge region), VL on human lambda constant domain; also called Fab 1D11; Fab-1D11
B9: scFv 1D11 (periplasmic extract, Myc-tagged) (scFv, not shown: small tags and cut ends)
scFv: QVQLVESGGGLVQPGGSLRLSCAASGFTFDDYAMSWVRQAPGKGLEWVSGISWNGGSTYYAESMKGRFTISRDNAKNTLYLQMNSLKSEDTAVYYCAKDRNLGYRLGYPYDYWGQGTQVTVSSGGGGSGGGGSGGGGSQSVLTQPPSVSGSPGETVTISCAGTSSDVGYGNYVSWYQQLPGMAPRLLIYEVNKRASGITDRFSGSKSGNTASLTISGLQSEDEGDYYCASYRSSNNAVFGGGTHLTVL
notes: also called 1D011
B10: scFv 6F06 (periplasmic extract, Myc-tagged) (scFv, not shown: small tags and cut ends)
scFv: QVQLVESGGGLVQPGGSLRLSCAASEFTFSRYSMSWVRQAPGKGLEWVSTINSGGGSTSYVDSVKGRFTISRDNAKNTLYLQMNSLKPEDTAVYYCTKSQGGISFSTQYGMDYWGKGTLVTVSSGGGGSGGGGSGGGGSNFMLTQPSAVSVSLGQTARITCQGGNFGRYYANWYQQKPGQAPVLVIYKDSERPSGIPERFSGSSSGDTATLTISGAQAEDESDYYCQSGSVSDNAVFGGGTHLAVL
B11: 6F05 Fab (Fab, V domains shown)
VH: QLQLVESGGGLVQPGGSLRLSCAASGFTFSSYAMSWVRQAPGKGLEWVSAINSGGGSTSYADSVKGRFTISRDNAKNTLYLQMNSLKPEDTAVYYCATPGDRLWYYRYDYWGQGTQVTVSS
VL: QAGLTQPPSVSGTLGKAVTISCAGTSSDIGYGNYVSWYQQLPGTAPKLLIYKVSRRASGVPDRFSGSKSGNTASLSISGLQSEDEADYYCASYRYRNNVVFGGGTHLTVL
notes: VH on human CH1 constant domain (with part of the hinge region), VL on human lambda constant domain; also called 6F5; Fab 6F5
B12: scFv 4E08 (periplasmic extract, Myc-tagged) (scFv, not shown: small tags and cut ends)
scFv: QVQRQESGPGLVKPSQTLSLTCTVSGGSITTSYYAWSWIRQPPGKGLEWMGVIASDGSTYYSPSLKSRTSISRDTSKNQFSLQLSSVTPEDTAVYYCALYIRGSSWSGWSAYDYWGQGTQVTVSSGGGGSGGGGSGGGGSQPVLNQPSAVSVSLGQTARITCQGGNFGYYYGSWYQQKPGQAPVLVIYKDSERPSGIPERFSGSSSGGTATLTISRAQAEDEADYYCQSADSSDNPVFGGGTHLTVL
notes: also called 4E8
B13: scFv 6A08 (periplasmic extract, Myc-tagged) (scFv, not shown: small tags and cut ends)
scFv: QVQLVESGGGLVQPGGSLRLSCAASGFTFSSYAMSWVRQAPGKGPEWVSAINRGGGSTYYADSVKGRFTISRDNAKNTLYLQMNSLKPEDAAVYYCATPGDRLWYYRYDYWGQGAQVTVSSGGGGSGGGGSGGGGSQTVVTQEPSLSVSPGGTVTLTCGLSSGSVTSSNYPGWYQQTPGQAPRLLIYNTNSRYSGVPNRFSGSISGNKAALIISGAQPEDEADYHCALNRVRGTYRVFGGGTHLTVL

Experiments:
[1] = molecular target: T1, human galectin-10-His (recombinant …); assay: ELISA, Fab on coated galectin-10-His
[2] = molecular target: T1, human galectin-10-His (recombinant …); assay: BLI OctetRed96, Fab on galectin-10-His
[3] = molecular target: T2, human galectin-10 as coated in ELISA …; assay: ELISA, scFv periplasmic extract on coated soluble galectin-10, anti-Myc-HRP
Procedure: In order to test the binding capacity of the scFvs to galectin-10, an ELISA binding assay was established. Briefly, a Maxisorp plate was coated with soluble galectin-10 (1 μg/mL), then blocked with casein, before being incubated with the periplasmic extract (dilution 1/5 in PBS) containing the scFv-Myc. Detection of the binder was carried out with an anti-Myc-HRP antibody. Absorbance was measured at 450 nm (reference at 620 nm) with Tecan instrument. A significant number of galectin-10 scFv binders were isolated after the second round of selection (45-87% of binders).

[4] = molecular target: T1, human galectin-10-His (recombinant …); assay: BLI Octet RED96, galectin-10-His on anti-Penta-His tips, scFv periplasmic extract 1/10
Procedure: Briefly, galectin-10-His tagged diluted in Kinetic Buffer was captured on Anti-Penta His 1K sensor tips until an immobilization level of 1 nm was reached. Then, diluted periplasmic extracts (1/10) were applied and association/dissociation to immobilized galectin-10-His was measured using the ForteBio Data analysis 9.0 software (subtraction of the reference Tips, 1.1 binding model). During the screening, only the dissociation (off-rate) of the scFv can be determined since the effective concentration of the scFv is unknown and can vary a lot from clone to clone. […] Therefore, taking into consideration the ELISA and BLI data, a new panel of lead scFvs was selected.

Binder | Bmax [1] [OD] | EC50 [1] [nM] | Kd [2] [nM] | koff [2] [s⁻¹] | ELISA binding (OD values) [3] [OD] | koff [4] [s⁻¹] | PERI-ELISA binding (OD values) [3] [OD]
B1 | 0.7 | 25.6 | 147 | 0.00248 |  |  | 
B2 |  |  |  |  | 3.7 | 0.016 | 
B3 |  |  |  |  | 3.6 | 0.0099 | 
B4 | 1 | 1.9 | 13.4 | 0.000383 |  |  | 
B5 |  |  |  |  | 3.7 | 0.0058 | 
B6 |  |  |  |  | 3.5 | 0.0014 | 
B7 |  |  |  |  | 3.6 | 0.0067 | 3.63
B8 | 0.9 | 1.6 | 10.7 | 0.000299 |  |  | 
B9 |  |  |  |  | 3.3 | 0.0052 | 
B10 |  |  |  |  | 3.8 | 0.0057 | 
B11 | 0.8 | 26.7 | 188 | 0.00356 |  |  | 
B12 |  |  |  |  | 3.6 | 0.0094 | 
B13 |  |  |  |  | 3.5 | 0.0082 | 
